Article PMC11931385, “Structural and functional analysis of cancer-associated missense variants in the retinoblastoma protein pocket domain” (The Journal of Biological Chemistry, 2025)
Where a chain is given by its changes, count along the chain named. Names may count otherwise. No end group written: not given here. TMR = tetramethyl rhodamine dye

Columns and labels:
Assay in all cases: fluorescence polarisation; 37 °C, after the 25 °C reading ramped over 7 min to 37 °C and 2 min incubation; unlabeled Rb^P against 1.5 nM TMR-E2F1^TD or 7.5 nM TMR-E7^LxCxE; 25 mM Tris pH 8.0, 200 mM NaCl, 1 mM DTT, 0.1% Tween-20; apparent Kd
Settings in all cases: both partners purified
[1] = molecular target: T1, Rb^P S588F (human, UniProt P06400 380-788, S588F)
T1 construct: also called variant 34
T1 sequence (looked up): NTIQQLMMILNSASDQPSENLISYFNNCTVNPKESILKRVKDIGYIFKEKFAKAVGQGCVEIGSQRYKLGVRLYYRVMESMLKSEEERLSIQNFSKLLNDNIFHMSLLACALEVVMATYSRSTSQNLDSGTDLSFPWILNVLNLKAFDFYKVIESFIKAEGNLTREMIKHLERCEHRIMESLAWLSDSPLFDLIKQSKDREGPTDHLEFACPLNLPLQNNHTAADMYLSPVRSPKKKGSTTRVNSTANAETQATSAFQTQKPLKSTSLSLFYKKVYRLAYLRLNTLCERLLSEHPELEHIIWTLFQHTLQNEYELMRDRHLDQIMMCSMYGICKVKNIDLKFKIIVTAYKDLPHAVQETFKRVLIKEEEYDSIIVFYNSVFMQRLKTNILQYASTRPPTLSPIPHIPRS

[2] = molecular target: T2, Rb^P L550I (human, UniProt P06400 380-788, L550I)
T2 construct: also called variant 27
T2 sequence (looked up): T1 sequence (looked up) with L171I, F209S

[3] = molecular target: T3, Rb^P S463L (human, UniProt P06400 380-788, S463L)
T3 construct: also called variant 10
T3 sequence (looked up): T1 sequence (looked up) with S84L, F209S

[4] = molecular target: T4, Rb^P D584Y (human, UniProt P06400 380-788, D584Y)
T4 construct: also called variant 32
T4 sequence (looked up): T1 sequence (looked up) with D205Y, F209S

[5] = molecular target: T5, Rb^P I679F (human, UniProt P06400 380-788, I679F)
T5 construct: also called variant 57
T5 sequence (looked up): T1 sequence (looked up) with F209S, I300F

B1: TMR-E2F1^TD, peptide of the E2F1 transactivation domain (peptide)
peptide: {TMR}-GEGIRDLFDCDFGDLTPLD
notes: also called E2F^TD; source: synthetic peptide, bought: GenScript
Kd [1]: 51 nM | Kd [2]: 80 nM | Kd [3]: 41 nM | Kd [4]: 51 nM | Kd [5]: 33 nM

B2: TMR-E7^LxCxE, LxCxE peptide of the E7 oncoprotein from HPV (peptide)
peptide: DLYCYEQLN
modifications: also: TMR label, position not given here
notes: source: synthetic peptide, bought: GenScript
Kd [1]: 16 nM | Kd [2]: 7 nM | Kd [3]: 17 nM | Kd [4]: 20 nM | Kd [5]: 20 nM
